Results from the nanobody polyreactivity screen of Harvey et al. (2022).

Test: yeast display, Sf9 membrane polyspecificity reagent, FACS + sequencing; frameworks hold sequencing errors
In short: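 In a synthetic yeast display library (Saccharomyces cerevisiae BJ5465), nanobody expression was induced with galactose for 36–48 hours. FACS gates were set low and high (top ~1%) using anti-HA fluorescence for expression and streptavidin fluorescence for binding of the Sf9 membrane reagent. Each polyreactivity label is drawn from the gate of origin.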

Sequence	polyreactivity (PSR sort gate)
QVQLVESRGGLVQAGGSLRLSCAASGSIFSWYTMGWSRQAPGKERELVARITTSGGTPRYADSVKGRFTISRDNAKNTVYLQMNSLKPEDTAVYYCAADRSPYWRGYGRYNYWGQGTQVTVSS	high polyreactivity
QVQLVESGGGLFQAGGSLRLSCAASGRTFAIYDMGWYRQAPGKEREVVAAIDYSDGSTYYADSVKGRFTISRDNAKNTVYLQMNSLKPEDTAVYYCAADYDAIYLWWGYDYWGQGTQVTVSS	low polyreactivity
QVQLVESGGGLVQAGGSLRLSCAASGSTFYYYAMGCYRQAPGKERELVASITTGGGSTYYADSVKGRFTISRDNAKNTVYLQLNSLKPEDTAVYYCGAALAYYYWWYDYWGQCTQVTVSS	low polyreactivity
QVQLVESGGGLVQAGGSLRLSCAASGRTFTSYAMGWYRQAPGKERELVAAITRGGRTNYADSVKGRFTISRDNAQNTVYLQMNSLKPEDTAVYYCNADGPGYAAKYYWKYDYWGQVTQVTVSS	low polyreactivity
QVQLVESGGGVVQAGGSLRLSCAASGSIFDPYAMGWYRHARGKERELVAALNSDGSTNYADSVKGRFTISRDNAKNTDYLQLNSLKPEDTAVYYCAARTFTLRGDDSWGQGSQVTVSS	low polyreactivity
QVQLVESGGGLVQARGSLRLICAASGSTFWYYAKGWYRQAPGKERELVAAITSGDSTYYADSVKGRFTISRDNAKNTVYLQMNSLKPEDTAVYYCAADLPWEDGYYYYSGYTEYDYWGQGTQVTVSS	low polyreactivity
QVQLVESGGGLVQAGGSLRLSCAASGSIFYSYAMGGYRQAPGKERELVAAITDSGDSTYYADSVKGRFTISRDNAKNTVYLQMNSLKPEDTAVYYCAAGFYPYYYWGQGTQVTVSS	low polyreactivity
QVQLVESGGGLVQAGGSLRLSCAASGRTFPYYVMGWYRQAPGKERELVATISSSGRTYYADSVKGRFTISRDNAKNTVYLQMNSLKPEDTAVYYCAARFRWNQNYHFYSWGQGTQVTVSS	high polyreactivity
QVQLVESGGGLLQAGGSLRLSCAASGIIIYYYAMGWYRQAPGKERELVAAITYRGGSTYADSVKGRFTISRDNAKNTVYLQMNSLKPEDTAVYYCNAVWEEKYQAPGSYDYWGQGTQVTVSS	low polyreactivity
QVQLVESGGGLVQAGGSLSLSCAASGSIFASNTMGWYRPAPGKERELVAGITKIGSSTYYADSVKGRFTISRDNAKNTVYLQMNSLKPEDTAVYYCNAYGPNIYSSRYDYWGQGTQVTVSS	low polyreactivity
QVQLVESGGGLVQAGGSLRLSGAASGRTLKWYAMGWYRQPPGKERELVAAISWSGGSTYYADSVKGRFTISRDNAKNTVYVQMNSLKPEDTAVYYCAAYYIYSSVGKSLYASMEYWGQGTQVTVSS	low polyreactivity
QVQLVESGGGLVQAGGSLRLSCAASGFTFWRNAMGWYRQAPGKERELVAAISSGTGRTYYADSVKGRFTISRDNAKYTVYLQMNSLKPEDTAVYYCAKVNWRTSYGTSTRDYWGQGTQVTVSS	low polyreactivity
QVQLVDSGGGLVQAGGSLRLSCAAYGSTFGPYAMGWYRQAPGKERELVAAIRVSGGSTYYADSVKGRFTISRDNAKNTVYLQMNSLKPEDTAVYYCIRDVMTFNYDYWGQGTQVTVSS	low polyreactivity
QGQLVESGGGLVQAGGSLRLTCAASGSNFVQNAMGWYRPAPGKERELVAVSNSGDSTNYADSVKGRFTISRDNAKNTVYLHMNSLKPEDNAVYYCAVDDVSYYYLRAYNYELSWYGSGLDYWGQGTQVTVSS	low polyreactivity
QVQLVESWGGLVQAGRSLRLSCAASGRTFYNYAMGWYRQAPGKERELVAAITRGGSTYYADSVKGRFTISRDNAKNTVYLHMNSLKPEDTAVYFCNAKYIKGRDWGQGTQVTVSS	high polyreactivity
QFQLEESGGGLVQAGGSLRLSCAASGSIFKGYTMGWYRQAPRKVREFVASMSRRGGSTYYADSVKGRFTISRDYAKNTVYLQMNSLKPEDTAVYYCAKDYGKAYDDWGQGTQVTVSS	high polyreactivity

Sequence	polyreactivity (PSR sort gate)
QVQLVESGGGLVQAGGSLRLSCAASGFIFRLYAMGWYRQAPGKERELVAAISSSGGRTTYADSVKGRFTISRDNAKNTVYLQMNSLKPEDTAVYYCNADLWPGNHDGYWGQGTQVTVSS	low polyreactivity
QVQLVESGGGLVQAGGSLRLSCAASGRIIGVNAMGWYRQAPGKERELVAAISWSGGSTYYADSVKGRFTISRDNAKNTVYLQMNSLKPEDTAVYYCATTYFYARRPRGDYWGQGTQVTVSS	high polyreactivity
QVQLVESGGGLVQAGGSLRLSCAPSGRTFWSYAMGWYRQAPGKERELVAAISLDDGTTYYADSVKGRFTISRDNAKNTVYLQMNSLKPEDTAVYDCAAEREQGDDGYGPDYGYWGQGTQVTVSS	high polyreactivity
QVQLVESGGGLVQAGGSLRLSCAASGSIFLAYAMGWYRQAPGKERELVASTYYADSVKGRFTISRDNAKNTVYLQMNSLKPEDTAVYYCAADRIYSIYVSPYYSFGYWGQGTQVTVSS	low polyreactivity
QVQLVESGGGLVQAGGSLRLSCAASGLTFYSYAMGWYRQAPGKERELVADISWSGGSTYYADSVKGRFTISRDNAKNTVYLQMNSLQPEDTAVYYCAAEVFPGYDYWGQGTQVTVSS	low polyreactivity
QVQLVESGGGLVQAGGSLRLSCAASGIIFGTYTMGWYRQAPGKERELVAAITYSGGRTYYADSVKGRFTISRDNAKNTVYLQMNSLKPEDTAVYYCAAYRSSWGYSPYDYWGQGTQVTVSS	high polyreactivity
QVQLVESGGGLVQAGGSLRLSCAASGPIFGFNAMGWYRQAPGKERELVARISSVGSTNYADSVKGRFTISRDNAKNTVYLQMNSLKPEDTAVYYCAAKRYYTQSSYYLALYDYWGQGTQVTVSS	low polyreactivity
QVQLVESGGGLVQAGGSLRLSCAASGSTFYVYAMGWYRQAPGTERELVAAIDYSDGSTYYADSVKGRFTISRDNAKNTVYLQMNSRKPEDTAVYYCAADTVSWFEYYYWGQGTQVTVSS	high polyreactivity
QVQLVESGGGLVQAGGSLRLSCAASGIIFQNYAMGWYRPAPGKERELVAVISNTGSTNYADSVKGRFTISRDNAKNTVYLQMNSLKPEDTAVYYCAAEFRVVDWLWFDYWGQGTQVTVSS	high polyreactivity
QVQLVESGGGLVQAGGSLRLSCAASGRIFYFYVMGWYRQAPGKERELVAGISDGSTNYADSVKGRFTISRDNAKNTVYLQMNSLKPEDTAVYYCAKDPLVIRFVQGRFGYDYWGQGTQVTVSS	low polyreactivity
QVQLVESGGGLVQAGGSRRLICAASGSIFGWYAMGWYRPAHGKERELVAAISQSGGRTYYADSVKGRFTISRDNAKNTVYLQMNSLKPEDTAVYYCAAYYTSYWGYDYDYWGQGTQVTVSS	low polyreactivity
QVQLVESGGGLVQAGGSLRFSCAASGFIFVVNAMGGSRQAPGKEREFVAVISSSTGSTYYADSVKGRFTISRDNAKTTVYLQMNSLKPEDTAVYYCAAASRRRRPLKRMDYWGQGTQVTVSS	low polyreactivity
QVQLEESGGGLVQAGGSLRISCAASGSIFPSYAMGWYRQAPGKERELVAAISSRGGSTYYADSVKGRFTISRDNAKNSVYLQMNSLKPEDTAVYYCNAVAGGVYVDKGYDYWGQGTQVTVSS	high polyreactivity
QVQLVESGGGLVQAGGSLRLSCAASGFTFYYYTMGWYRQAPGKERELVAVITGGGGSTYYADSVKGRFTISRDNAKNTVYLQMNSLKPEDTAVYYCAAKFYGWYRQRGYDYWGQGTQVTVSS	high polyreactivity
QVQLVESGGGLVQAGGSLRLSCAASGFTILRYAMGWYRQAPGKERDLVAAISTSGGSTSYADSVKGRFTISRDNAKNTVYVQMYSLKPEDSAVYYCKAVLYKAYWQLYDYWGQGSQVTVSS	high polyreactivity
